{"source": "patent US20110262439A1", "about": "(Amgen, published 2011)", "binders": {"B1": {"name": "ME06F2HL (scFv)", "scFv": "EVQLLEQSGAELMKPGASVKISCKATGYTFSNYWIGWVKQRPGHGLEWIGDIYPGGSYTNYNEKFKGKVTLTADTSSRTAYMQLSSLTFEDSAIYYCARSGYDYASDYDYHGMDYWGQGTTVTVSSGGGGSGGGGSGGGGSELVLTQSPSSMSASLGDRITITCQATQDIVKNLNWYQQKPGKPPSFLIYYATELAEGVPSRFSGSGSGSDYSLTISNLESEDFADYYCLQFYEFPYTFGGGTKLEIKTGDYKDDDDKHHHHHH", "notes": "murine anti-c-MET scFv; E. coli periplasmic preparation"}, "B2": {"name": "ME06E10HL (scFv)", "scFv": "EVQLLEQSGADLVRPGTSVKLSCKAAGYTFSRYWISWIRQRPGHGLEWIGEIYPGGGYGNYNENFKDKVTLTADTSSSTAYMQLSSLTSEDSAIYYCARSGYDYGSKYDYYGLDYWGQGTTVTVSSGGGGSGGGGSGGGGSELVMTQSPSSLSASLGERVSLTCRASQEISGYLSWLQQKPDGTIKRLIYAASTLDSGVPKRFSGSRSGSDYSLTISSLESEDFADYYCLQYASSPYTFGGGTKLEIKTGDYKDDDDKHHHHHH", "notes": "as for B1"}, "B3": {"name": "ME06D2HL (scFv)", "scFv": "EVQLLEQSGADLVRPGTSVKLSCKAAGYTFSRYWISWIRQRPGHGLEWIGEIYPGGGYGNYNENFKDKVTLTADTSSSTAYMQLSSLTSEDSAIYYCARSGYDYGSKYDYYGLDYWGQGTTVTVSSGGGGSGGGGSGGGGSELVMTQSPSSMYASLGERVTITCKASQDINSYLSWFQQKPGKSPKTLIYRANRLVDGVPSRFSGSGSGQDYSLTISSLEYEDMGIYYCLQYDAFPPTFGAGTKLEIKTGDYKDDDDKHHHHHH", "notes": "as for B1"}, "B4": {"name": "ME06D1HL (scFv)", "scFv": "EVQLLEQSGAEVVRPGTSVKMSCKAAGYTFTKYWIGWVKQRPGHGLEWIGDIHPGGGFANYNEKFKGKATLTADTSSSTAYMQLSRLTSDDSAIYYCARSGYDYGSSYDYHGMDYWGQGTTVTVSSGGGGSGGGGSGGGGSELVMTQSPSSLTVTAGEKVTMSCKSSQSLLNSGNQKNYLAWYQQKPGQPPKLLIYGASTRESGVPDRFTGSGSGTDFTLTISSVQAEDLADYFCQQHYSTPYTFGGGTKLEIKTGDYKDDDDKHHHHHH", "notes": "as for B1"}, "B5": {"name": "ME06C7HL (scFv)", "scFv": "EVQLLEQSGAEVVRPGTSVKMSCKAAGYTFTKYWIGWVKQRPGHGLEWIGDIHPGGGFANYNEKFKGKATLTADTSSSTAYMQLSRLTSDDSAIYYCARSGYDYGSSYDYHGMDYWGQGTTVTVSSGGGGSGGGGSGGGGSELQMTQSPTSLAVSLGQRATISCRASQTVYYDGNNYMNWYQHKPGQPPKLLIYATSNLESGIPARFSGSGSGTDFTLNIHPVEAEDAATYYCQQSYEDPYTFGGGTKLEIKTGDYKDDDDKHHHHHH", "notes": "as for B1"}, "B6": {"name": "ME06C6HL (scFv)", "scFv": "EVQLLEQSGAELVRPGTSVKIPCKATGYTFSYYWIGWVKQRPGHGLEWIGDIYPGGGYSNYNEKFKGKATLTADTSSSTAYMQLSGLTSEDSAIYYCARSGYDYGSDYDYHGLDYWGQGTTVTVSSGGGGSGGGGSGGGGSELVLTQSPASLAVSLGQRATISCRASESVEYYGTSLMQWYQQKPGQPPKLLIYAASNVESGVPARFSGSGSGTDFSLNIHPVEEDDIAMYFCQQSRKVPYTFGGGTKLEIKTGDYKDDDDKHHHHHH", "notes": "as for B1"}, "B7": {"name": "ME06B7HL (scFv)", "scFv": "EVQLLEQSGAELVRPGTSVKISCKATGYTFTTYWLGWVKQRPGHGLEWIGEIHPGGGYTNYNEKFKGKATLTADTSSSTAYMQLSRLTSDDSAIYYCARSGYDYGSSYDYYGMDYWGQGTTVTVSSGGGGSGGGGSGGGGSELVMTQSPSSLSASLGERVSLTCRASQDIGSSLNWLQQEPDGTIKRLIYATSSLDSGVPKRFSGSRSGSDYSLTISSLESEDFVDYYCLQYASSPYTFGGGTKLEIKTGDYKDDDDKHHHHHH", "notes": "as for B1"}, "B8": {"name": "ME05F6HL (scFv)", "scFv": "EVQLLEQSGAEVVRPGTSVKMSCKAAGYTFTKYWIGWVKQRPGHGLEWIGDIHPGGGFANYNEKFKGKATLTADTSSSTAYMQLSRLTSDDSAIYYCARSGYDYGSSYDYHGMDYWGQGTTVTVSSGGGGSGGGGSGGGGSELVMTQSPSSLSASLGERVSLTCRASQEISGYLSWLQQKPDGTIKRLIYAASTLDSGVPKRFSGSRSGSDYSLTISSLESEDFADYYCLQYASYPPTFGGGTKLEIKTGDYKDDDDKHHHHHH", "notes": "as for B1"}, "B9": {"name": "ME05B7HL (scFv)", "scFv": "EVQLLEQSGAELVRPGTSVKISCKTTGYTFGYYWISWLKQRPGHGLEWIGDIYPGGGYTNYHEKFKGKVTLTADTSSRTAYMQLSSLTFEDSAIYYCARSGYDYGSDYDYHGMDYWGQGTTVTVSSGGGGSGGGGSGGGGSELVMTQTPSSLSASLGDRVTISCRASQGISNYLNWYQQKPDGSVKLLIYYTSRLHSGVPSRFSGSGSGTDYSLTISNLDQEDIATYFCQQGNTLPWTFGGGTKLEIKTGDYKDDDDKHHHHHH", "notes": "as for B1"}, "B10": {"name": "ME75H6HL (scFv)", "scFv": "EVQLLEQSGAELVRPGTSVKMSCKAAGYTFTKYWIGWVKQRPGHGLEWIGDIHPGGGYANYNEKFKGKATLTADTSSSTAYMQLSRLTSDDSAIYYCARSGYDYGSSYDYHGMDFWGQGTTVTVSSGGGGSGGGGSGGGGSELQMTQSPASLSASVGEPVTFTCRASENIYSYLAWYQQKQGKSPQLLIYGATNLADGMSSRFSGSGSGRQYSLKISSLHPDDVATYYCQNVLSTPYTFGGGTKLEIKTGDYKDDDDKHHHHHH", "notes": "as for B1"}, "B11": {"name": "ME99B1HL (scFv)", "scFv": "EVQLLEQSGAELVRPGTSVKISCKATGYTFSNYWISWVKYRPGHGLEWIGDIYPGGSYTNYNEKFKGKVTLTADTSSRTAYMQLSGLTFEDSAIYYCARSGYDYGSDYDYHGMDYWGQGTTVTVSSGGGGSGGGGSGGGGSELQMTQSPASLSASVGETVTITCRASENIYSNLAWYQQKQGKSPQLLVYAATNLADGVPSRFSGSRSGSDYSLTISSLESEDFVDYYCLQYASYPYTFGGGTKLEIKTGDYKDDDDKHHHHHH", "notes": "as for B1"}}, "data": [{"target": "T1, mutated murine c-MET antigen with human membrane-distal epitopes (extracellular domains fused to a truncated … (murine/human chimera))", "T1 construct": "also called cMET-8", "T1 chain": "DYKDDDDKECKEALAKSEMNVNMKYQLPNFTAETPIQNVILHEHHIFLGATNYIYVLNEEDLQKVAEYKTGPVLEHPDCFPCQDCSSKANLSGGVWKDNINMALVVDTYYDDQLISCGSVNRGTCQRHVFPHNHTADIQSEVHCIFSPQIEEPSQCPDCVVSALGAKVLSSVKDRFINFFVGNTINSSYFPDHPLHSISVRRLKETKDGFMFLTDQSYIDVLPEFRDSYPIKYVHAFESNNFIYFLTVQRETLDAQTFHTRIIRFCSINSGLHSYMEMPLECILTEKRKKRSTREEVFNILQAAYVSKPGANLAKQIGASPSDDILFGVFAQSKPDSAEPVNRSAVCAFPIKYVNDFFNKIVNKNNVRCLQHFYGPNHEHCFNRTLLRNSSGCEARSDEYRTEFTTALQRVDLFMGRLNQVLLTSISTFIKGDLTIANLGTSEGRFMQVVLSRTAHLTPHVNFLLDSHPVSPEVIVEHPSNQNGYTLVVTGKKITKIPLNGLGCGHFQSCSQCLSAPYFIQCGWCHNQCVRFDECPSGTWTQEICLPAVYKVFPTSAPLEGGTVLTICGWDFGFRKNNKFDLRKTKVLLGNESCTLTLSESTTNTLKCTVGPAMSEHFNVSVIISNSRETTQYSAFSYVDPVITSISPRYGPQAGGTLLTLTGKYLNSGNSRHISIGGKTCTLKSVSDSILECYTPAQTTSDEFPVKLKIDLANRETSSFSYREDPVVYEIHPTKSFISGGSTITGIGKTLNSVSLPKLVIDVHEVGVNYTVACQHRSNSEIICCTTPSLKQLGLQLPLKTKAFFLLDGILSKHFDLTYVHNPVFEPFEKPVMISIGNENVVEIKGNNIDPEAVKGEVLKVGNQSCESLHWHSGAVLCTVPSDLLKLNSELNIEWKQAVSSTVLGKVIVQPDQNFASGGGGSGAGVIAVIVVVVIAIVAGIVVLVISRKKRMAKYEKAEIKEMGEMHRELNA", "assay": "FACS, CHO transfectants, periplasmic preparation", "values": [{"binder": "B1", "binding result": "no binding"}, {"binder": "B2", "binding result": "no binding"}, {"binder": "B3", "binding result": "no binding"}, {"binder": "B4", "binding result": "no binding"}, {"binder": "B5", "binding result": "no binding"}, {"binder": "B6", "binding result": "no binding"}, {"binder": "B7", "binding result": "no binding"}, {"binder": "B8", "binding result": "no binding"}, {"binder": "B9", "binding result": "no binding"}, {"binder": "B10", "binding result": "no binding"}, {"binder": "B11", "binding result": "no binding"}]}, {"target": "T2, mutated human c-MET antigen with murine membrane-distal epitopes (extracellular domains fused to a truncated … (human/murine chimera))", "T2 construct": "also called cMET-10", "T2 chain": "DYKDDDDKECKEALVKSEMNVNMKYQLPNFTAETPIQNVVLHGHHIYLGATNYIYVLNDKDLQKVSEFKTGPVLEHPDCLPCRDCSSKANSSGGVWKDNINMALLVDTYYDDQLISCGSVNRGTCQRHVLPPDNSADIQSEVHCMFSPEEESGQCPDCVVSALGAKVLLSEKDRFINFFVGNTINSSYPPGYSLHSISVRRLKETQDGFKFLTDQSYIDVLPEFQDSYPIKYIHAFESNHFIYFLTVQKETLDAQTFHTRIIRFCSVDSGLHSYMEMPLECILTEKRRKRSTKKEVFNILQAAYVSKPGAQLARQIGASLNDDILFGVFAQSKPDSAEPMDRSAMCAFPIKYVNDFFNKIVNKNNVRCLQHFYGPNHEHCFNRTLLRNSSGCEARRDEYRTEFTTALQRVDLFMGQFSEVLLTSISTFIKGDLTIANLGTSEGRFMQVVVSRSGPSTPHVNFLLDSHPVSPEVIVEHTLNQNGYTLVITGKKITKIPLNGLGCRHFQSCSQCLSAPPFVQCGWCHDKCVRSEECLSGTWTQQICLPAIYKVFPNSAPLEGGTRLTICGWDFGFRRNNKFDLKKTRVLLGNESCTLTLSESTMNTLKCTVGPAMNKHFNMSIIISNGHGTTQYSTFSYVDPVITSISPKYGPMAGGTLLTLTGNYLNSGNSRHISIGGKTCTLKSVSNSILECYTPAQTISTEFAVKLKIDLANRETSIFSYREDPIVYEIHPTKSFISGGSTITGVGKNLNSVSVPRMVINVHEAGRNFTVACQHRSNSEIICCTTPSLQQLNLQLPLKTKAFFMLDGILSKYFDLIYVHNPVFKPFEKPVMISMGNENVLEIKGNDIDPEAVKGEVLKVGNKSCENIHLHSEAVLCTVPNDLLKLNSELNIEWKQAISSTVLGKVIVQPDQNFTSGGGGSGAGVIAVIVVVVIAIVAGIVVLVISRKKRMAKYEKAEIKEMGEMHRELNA", "assay": "FACS, CHO transfectants, periplasmic preparation", "values": [{"binder": "B1", "binding result": "binds"}, {"binder": "B2", "binding result": "binds"}, {"binder": "B3", "binding result": "binds"}, {"binder": "B4", "binding result": "binds"}, {"binder": "B5", "binding result": "binds"}, {"binder": "B6", "binding result": "binds"}, {"binder": "B7", "binding result": "binds"}, {"binder": "B8", "binding result": "binds"}, {"binder": "B9", "binding result": "binds"}, {"binder": "B10", "binding result": "binds"}]}]}
